The target of this assay is L-threonine aldolase from Neptunomonas marine (NmLTA), wild type (Neptunomonas marine). Briefly: crystal structure.

Broadly, the stoichiometry N is a count of units in the complex or per binding partner.

Substance “L-threonine aldolase from Neptunomonas marine (NmLTA), wild type (enzyme)” showed a stoichiometry N of 4.

The record behind these values is doi:10.1101/2023.04.09.536162.
